Results from patent publication US20230322900A1.

Experiments:
[1] = target: FVIII-His-Myc (non-XTEN containing FVIII-His-Myc protein) (human); experiment: sandwich ELISA, antibody capture, anti-Myc detection, normalised to anti-His capture
[2] = target: FVIII-XTEN-His-Myc, XTEN insertion A1, 18, AE144 (human); experiment: as above
[3] = target: FVIII-XTEN-His-Myc, XTEN insertion A1, 18, AG144 (human); experiment: as above
[4] = target: FVIII-XTEN-His-Myc, XTEN insertion A1, 26, AE144 (human); experiment: as above
[5] = target: FVIII-XTEN-His-Myc, XTEN insertion A1, 26, AG144 (human); experiment: as above
[6] = target: FVIII-XTEN-His-Myc, XTEN insertion A1, 40, AE144 (human); experiment: as above
[7] = target: FVIII-XTEN-His-Myc, XTEN insertion A1, 40, AG144 (human); experiment: as above
[8] = target: FVIII-XTEN-His-Myc, XTEN insertion A2, 399, AE144 (human); experiment: as above
[9] = target: FVIII-XTEN-His-Myc, XTEN insertion A2, 403, AE144 (human); experiment: as above
[10] = target: FVIII-XTEN-His-Myc, XTEN insertion A2, 403, AG144 (human); experiment: as above
[11] = target: FVIII-XTEN-His-Myc, XTEN insertion A3, 1656, AG144 (human); experiment: as above
[12] = target: pBC0114 BDD FVIII base construct (pcDNA4-FVIII_4-…-Myc-SPATG-His) (human) (UniProt P00451); experiment: cell-based or functional assay
pBC0149 (human) = pBC0149 (human) (UniProt P00451); experiment: cell-based or functional assay

| Concentration on aFVIII/Myc ÷ concentration on aHis/Myc [1] [%] | Concentration on aFVIII/Myc ÷ concentration on aHis/Myc [2] [%] | Concentration on aFVIII/Myc ÷ concentration on aHis/Myc [3] [%] | Concentration on aFVIII/Myc ÷ concentration on aHis/Myc [4] [%] | Concentration on aFVIII/Myc ÷ concentration on aHis/Myc [5] [%] | Concentration on aFVIII/Myc ÷ concentration on aHis/Myc [6] [%] | Concentration on aFVIII/Myc ÷ concentration on aHis/Myc [7] [%] | Concentration on aFVIII/Myc ÷ concentration on aHis/Myc [8] [%] | Concentration on aFVIII/Myc ÷ concentration on aHis/Myc [9] [%] | Concentration on aFVIII/Myc ÷ concentration on aHis/Myc [10] [%] | Concentration on aFVIII/Myc ÷ concentration on aHis/Myc [11] [%] | Ratio to Control [12] | Ratio to Control (pBC0149 (human)) | Relative Remaining Activity (pBC0149 (human)) | Substance |
| --- | --- | --- | --- | --- | --- | --- | --- | --- | --- | --- | --- | --- | --- | --- |
| 104 | 130 | 131 | 87 | 147 | 147 | 153 | 140 | 141 | 129 | 158 | – | – | – | ESH8 anti-FVIII antibody (American Diagnostica Inc.) |
| – | – | – | – | – | – | – | – | – | – | – | 1 | 0.8 | 0.1 | GMA8008 FVIII inhibitor antibody |
| 92 | 129 | 150 | 155 | 157 | 137 | 164 | 100 | 103 | 104 | 153 | 1 | 1.3 | 0.2 | GMA-8021 anti-FVIII monoclonal antibody (Green Mountain Antibodies) |
